This note sets out measurements from US8398967B2, “Particle formulations for use in pharmaceutical compositions” (Intarcia Therapeutics, Inc., priority 2002, dated 2013).

One series in a line: Lipid moisture level. Type of series: physicochemical. The following applies: after vacuum at room temperature for 48 hours. Here is the method: The moisture level of the lipid, e.g., DOPC, […], or DMPC, is measured after vacuum at room temperature for 48 hours. Lipid vehicles with lower moisture level can be included in viscous liquid compositions.
Series [1] is described as follows: ω-Interferon solubility in non-aqueous liquid solvents. Type of series: physicochemical. The text has this: Thirteen non-aqueous liquid solvent candidates were identified to develop a solution formulation or a suspension formulation based on solubility of ω-interferon. The solvents at the top, e.g., lauryl lactate, are potential suspension solvents. The character of the solvents changes to potential solution solvents in combination with ω-interferon, e.g., glycerol formal, benzyl benzoate, DMSO, or glycerin.

The mark [2] stands for this setting: solvent 1:1 benzyl benzoate:benzyl alcohol, expected conc 10.00 mg/ml.
[3] abbreviates: solvent NMP, expected conc 25.00 mg/ml.
Where [4] appears, read: solvent PEG 400, expected conc 25.00 mg/ml.
The mark [5] stands for this setting: solvent benzyl alcohol, expected conc 10.00 mg/ml.
[6] abbreviates: solvent ethanol, expected conc 25.00 mg/ml.
The mark [7] stands for this setting: solvent ethyl hexyl lactate, expected conc 10.00 mg/ml.

A value given as a limit tells only on which side of the number the result lay.

Regarding `CCCCCCCCCCCCCC(=O)OC[C@H](COP(=O)([O-])OCC[N+](C)(C)C)OC(=O)CCCCCCCCCCCCC` [DMPC, dimyristoylphosphatidylcholine], in “Lipid moisture level”, the “Avg. Moisture” value stood at 0.6%.

With `CCCCCCCC/C=C\CCCCCCCC(=O)OC[C@H](COP(=O)([O-])OCC[N+](C)(C)C)OC(=O)CCCCCCC/C=C\CCCCCCCC` [DOPC, 1,2-Dioleoyl-sn-glycero-3-phosphatidylcholine], the “Avg. Moisture” value in the series “Lipid moisture level” turned out to be 0.6 ± 0.2%.

For the molecule ω-interferon, the solubility result in series [1] (in the solvents that were combined with DOPC to form suspensions) is “less than 0.1 mg/mL”. Also, the “Concentration by SEC” value in series [1] (setting [2]), in series [1] (setting [3]), in series [1] (setting [4]), in series [1] (setting [5]), in series [1] (setting [6]) and in series [1] (setting [7]) was 0 ng/mL in each case. Besides, the “Concentration by UV” value in series [1] (setting [2]) is below 100 µg/mL; in series [1] (setting [3]) it was below 100 µg/mL; in series [1] (setting [4]), below 100 µg/mL; in series [1] (setting [5]) it was 140 µg/mL; in series [1] (setting [6]), below 100 µg/mL; in series [1] (setting [7]) it was 370 µg/mL. The “Concentration by UV” value was below 100 µg/mL in series [1] (solvent lauryl alcohol, expected conc 10.00 mg/ml) and below 100 µg/mL in series [1] (solvent lauryl lactate, expected conc 10.00 mg/ml). The “Concentration by rp-HPLC” value in series [1] (setting [2]), in series [1] (setting [3]), in series [1] (setting [4]), in series [1] (setting [5]), in series [1] (setting [6]) and in series [1] (setting [7]) was 0.00 in each case.
